In experiment [1] the target is T1, mouse CD47-IgV-Domain protein (mouse), Q61735.
T1 chain: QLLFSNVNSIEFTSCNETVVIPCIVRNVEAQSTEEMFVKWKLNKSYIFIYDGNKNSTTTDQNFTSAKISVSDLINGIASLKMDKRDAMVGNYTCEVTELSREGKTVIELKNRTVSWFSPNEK
Nature of the experiment: MST; human or mouse CD47-IgV-Domain protein labeled with NT-647, about 50 to 200 nM; unlabeled peptides or ligand protein diluted serially; 50 mM Tris, 150 mM NaCl, 10 mM MgCl2, 0.05% Tween-20, 0.5% DMSO, pH 7.5; 30 min at room temperature; 25°C.

Experiment [2] concerns the target human CD47-IgV-Domain protein (human), Q08722. The experiment is described as above.
The target in experiment [3] is T2, mouse CD47-IgV-Domain-hIg fusion protein (mouse), Q61735.
T2 chain: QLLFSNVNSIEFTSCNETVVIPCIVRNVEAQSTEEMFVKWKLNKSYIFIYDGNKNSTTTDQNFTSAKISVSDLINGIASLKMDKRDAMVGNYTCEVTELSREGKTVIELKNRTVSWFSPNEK
Nature of the experiment: flow cytometry on cells; competition: CD47-IgV-Domain-hIg (20 nM) incubated with titrating concentrations of peptide in PBS pH 7.4 for 1 hour at 4°C, then on SIRPα-overexpressing CHO cells 30 min at 4°C; PE-conjugated goat anti-human IgG; IC50 from sigmoidal dose response curves. On the technique in general: A flow cytometer gives signals particle by particle.

The target in experiment [4] is human CD47-IgV-Domain-hIg fusion protein (human), Q08722. The description is as above.
Chain of human CD47-IgV-Domain-hIg fusion protein (human), Q08722 (Q08722 19-141): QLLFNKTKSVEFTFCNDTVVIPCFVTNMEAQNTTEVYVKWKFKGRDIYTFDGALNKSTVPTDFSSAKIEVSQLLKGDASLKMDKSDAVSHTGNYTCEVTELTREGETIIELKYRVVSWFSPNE

The values that follow come from publication PMC7537338, “CD47/SIRPα blocking peptide identification and synergistic effect with irradiation for cancer immunotherapy” (Journal for Immunotherapy of Cancer, 2020).

Broadly, the Kd is a measure of binding affinity in units of concentration. As usually defined, the IC50 is the concentration that inhibits the measured activity by half. A low value points to greater potency.

Chain of human CD47-IgV-Domain protein (human), Q08722 (Q08722 19-141): as above

B1: pep-20 (peptide)
chain: AWSATWSNYWRH
modifications: not checked
As for B1, the Kd in experiment [1] is 3.63 µM; in experiment [2], 2.91 µM. Also, the half-maximal inhibitory concentration (IC50) in experiment [3] came to 12 µM; in experiment [4], 24.6 µM.
